Assays:
[1] = target: full-length recombinant tau (human) (UniProt P10636); assay: sandwich immuno-PCR, Tau1 capture on plate, HT7-DNA conjugate detection, recombinant tau at 16 pg/ml in synthetic serum
[2] = target: full-length recombinant tau (human) (UniProt P10636); assay: sandwich immuno-PCR, Tau1 capture on plate, HT7-DNA conjugate detection, recombinant tau at 80 pg/ml in synthetic serum
[3] = target: full-length recombinant tau (human) (UniProt P10636); assay: sandwich immuno-PCR, Tau1 capture on plate, HT7-DNA conjugate detection, recombinant tau at 3.2 pg/ml in synthetic serum
[4] = target: full-length recombinant tau (human) (UniProt P10636); assay: sandwich immuno-PCR, Tau1 capture on plate, HT7-DNA conjugate detection, recombinant tau at 400 pg/ml in synthetic serum
[5] = target: full-length recombinant tau (human) (UniProt P10636); assay: sandwich immuno-PCR, Tau1 capture on plate, HT7-DNA conjugate detection, recombinant tau at 0.64 pg/ml in synthetic serum
[6] = target: full-length recombinant tau (human) (UniProt P10636); assay: sandwich immuno-PCR, Tau1 capture on plate, HT7-DNA conjugate detection, recombinant tau at 2000 pg/ml in synthetic serum
[7] = target: full-length recombinant tau (human) (UniProt P10636); assay: sandwich immuno-PCR, Tau1 capture on plate, HT7-DNA conjugate detection, recombinant tau at 10000 pg/ml in synthetic serum

Chain of UniProt P10636 (P10636 other isoform, or with tags, fused parts or gaps): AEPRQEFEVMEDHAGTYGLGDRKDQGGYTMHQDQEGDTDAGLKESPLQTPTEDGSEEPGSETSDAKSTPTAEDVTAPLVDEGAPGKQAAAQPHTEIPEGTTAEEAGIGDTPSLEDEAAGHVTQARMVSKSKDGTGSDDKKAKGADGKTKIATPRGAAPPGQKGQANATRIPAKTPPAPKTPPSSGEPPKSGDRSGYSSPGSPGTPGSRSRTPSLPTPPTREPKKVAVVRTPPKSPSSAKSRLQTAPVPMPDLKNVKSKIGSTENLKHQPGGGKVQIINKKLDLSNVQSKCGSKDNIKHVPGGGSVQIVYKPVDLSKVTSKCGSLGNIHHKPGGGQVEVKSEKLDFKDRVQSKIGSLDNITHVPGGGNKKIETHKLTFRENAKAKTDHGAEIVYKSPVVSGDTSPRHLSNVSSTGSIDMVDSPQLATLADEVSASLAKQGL

delta counts [1]: 21.7 delta counts
delta counts [2]: 23.6 delta counts
delta counts [3]: 20.6 delta counts
delta counts [4]: 26.3 delta counts
delta counts [5]: 20.3 delta counts
delta counts [6]: 29 delta counts
delta counts [7]: 31.7 delta counts
Substance: Tau1 (antibody)
